Kd data for three molecules are collected here from publication PMC3544317 (2014).

In assay [1] the target is T1, FVa (FVa2) (Homo sapiens, UniProt P12259).
T1 chain 1: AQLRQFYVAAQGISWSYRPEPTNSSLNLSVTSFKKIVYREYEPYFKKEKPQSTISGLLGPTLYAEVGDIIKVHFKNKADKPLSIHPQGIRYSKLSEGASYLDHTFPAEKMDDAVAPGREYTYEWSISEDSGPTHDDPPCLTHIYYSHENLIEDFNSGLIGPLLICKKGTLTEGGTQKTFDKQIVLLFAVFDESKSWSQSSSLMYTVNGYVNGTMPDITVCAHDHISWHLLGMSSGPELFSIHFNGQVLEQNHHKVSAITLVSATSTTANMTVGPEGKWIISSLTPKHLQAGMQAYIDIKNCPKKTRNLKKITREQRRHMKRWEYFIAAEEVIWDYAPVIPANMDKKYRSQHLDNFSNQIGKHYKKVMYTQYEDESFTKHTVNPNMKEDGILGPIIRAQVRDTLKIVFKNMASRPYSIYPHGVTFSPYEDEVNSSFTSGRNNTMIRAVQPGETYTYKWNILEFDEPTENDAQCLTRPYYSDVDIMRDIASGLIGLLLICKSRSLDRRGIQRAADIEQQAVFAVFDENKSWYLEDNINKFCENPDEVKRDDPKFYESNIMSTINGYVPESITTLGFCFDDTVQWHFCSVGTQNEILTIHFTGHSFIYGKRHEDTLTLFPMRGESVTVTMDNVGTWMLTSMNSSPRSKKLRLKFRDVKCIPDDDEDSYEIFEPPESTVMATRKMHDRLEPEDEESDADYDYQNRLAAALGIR
T1 chain 2: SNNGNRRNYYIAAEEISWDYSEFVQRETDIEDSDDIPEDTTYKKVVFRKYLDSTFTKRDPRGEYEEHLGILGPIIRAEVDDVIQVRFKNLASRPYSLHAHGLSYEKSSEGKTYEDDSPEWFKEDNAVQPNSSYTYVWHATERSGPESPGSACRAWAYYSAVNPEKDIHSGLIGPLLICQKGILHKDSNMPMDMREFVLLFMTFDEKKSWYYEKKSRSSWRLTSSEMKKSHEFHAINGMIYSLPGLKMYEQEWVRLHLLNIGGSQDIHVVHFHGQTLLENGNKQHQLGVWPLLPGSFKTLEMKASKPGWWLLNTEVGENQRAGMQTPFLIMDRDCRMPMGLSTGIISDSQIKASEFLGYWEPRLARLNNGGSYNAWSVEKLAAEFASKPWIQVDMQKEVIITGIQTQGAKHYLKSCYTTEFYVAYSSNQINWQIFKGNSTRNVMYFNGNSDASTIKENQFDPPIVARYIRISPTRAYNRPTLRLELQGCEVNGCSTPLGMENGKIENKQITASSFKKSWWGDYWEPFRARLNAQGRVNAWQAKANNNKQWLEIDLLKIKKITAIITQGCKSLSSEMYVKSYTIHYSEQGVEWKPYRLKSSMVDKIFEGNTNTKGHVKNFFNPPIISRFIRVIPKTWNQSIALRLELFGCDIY
The assay can be described thus: prothrombinase activity titration.

Assay [2] addresses T1, FVa (FVa2). Briefly: global fit of activity.
Assay [3] deals with T1, FVa (FVa2). Briefly: prothrombinase activity titration.
Another assay has as its target T2, FXa (Homo sapiens, UniProt P00742).
T2 chain 1: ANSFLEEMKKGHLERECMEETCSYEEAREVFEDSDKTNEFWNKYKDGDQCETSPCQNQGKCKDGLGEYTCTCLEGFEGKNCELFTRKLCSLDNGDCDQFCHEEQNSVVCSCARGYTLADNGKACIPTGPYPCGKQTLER
T2 chain 2: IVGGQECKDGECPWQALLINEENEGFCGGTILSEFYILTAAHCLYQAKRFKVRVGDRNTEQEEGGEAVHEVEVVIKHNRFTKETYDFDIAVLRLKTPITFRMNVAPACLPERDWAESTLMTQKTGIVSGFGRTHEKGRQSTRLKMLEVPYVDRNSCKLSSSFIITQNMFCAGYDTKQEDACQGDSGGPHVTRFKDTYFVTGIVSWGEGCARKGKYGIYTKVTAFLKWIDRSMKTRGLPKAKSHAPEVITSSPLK
The assay can be described thus: prothrombin activation rate vs FXa.

Assay [4] deals with T1, FVa (FVa2). The assay can be described thus: prothrombinase activity titration.
The target of assay [5] is T1, FVa (FVa2). Briefly: global fit of activity, dimer competition model.
The target in the next assay is T3, DEGR-FXa (Homo sapiens, UniProt P00742).
T3 chain 1: T2 chain 1
T3 chain 2: T2 chain 2
Briefly: fluorescence of active-site-labeled FXa.

B1: FXa (protein)
chain 1: T2 chain 1
chain 2: T2 chain 2
modifications: C6PS, 5 mM Ca2+
For orientation: Kd means the constant that tells how readily two partners part at equilibrium. A high value points to weaker binding. Turning to B1, the Kd worked out at 43 nM with FVa (FVa2) [1]; 0.43 nM with FVa (FVa2) [2]; 20 nM in the assay with FVa (FVa2) [3]; 16 nM with FXa; 2.2 nM in the assay with FVa (FVa2) [4]; 0.32 nM with FVa (FVa2) [5].

B2: DEGR-FXa (protein)
chain 1: T2 chain 1
chain 2: T2 chain 2
modifications: DEGR active-site label, C6PS, 3 mM Ca2+
In turn, B2 registered an equilibrium dissociation constant (Kd) with DEGR-FXa of 600 nM.

B3: FXa (protein)
chain 1: T2 chain 1
chain 2: T2 chain 2
modifications: C6PS, 3 mM Ca2+
Consider B3, for which the Kd was 8 nM in the assay with FVa (FVa2) [1] and 1.7 nM with FVa (FVa2) [4].
